Patent publication US20170260284A1 (NATIONAL CANCER CENTER, published 2017)
Positions count from the first letter of the chain named. Each block holds one binder with its values, some of them ahead of it.

Key:
[1] = target: T1, human transmembrane protein 180 (TMEM-180), endogenous on human cancer cells (human, UniProt Q14CX5 1-517); assay: flow cytometry on colon cancer and brain tumor cell lines
T1 construct: Membrane protein expressed endogenously by human colon cancer lines (DLD-1 and others), brain tumor lines and colon cancer tissue; also called TMEM-180 on DLD-1 cells
T1 sequence: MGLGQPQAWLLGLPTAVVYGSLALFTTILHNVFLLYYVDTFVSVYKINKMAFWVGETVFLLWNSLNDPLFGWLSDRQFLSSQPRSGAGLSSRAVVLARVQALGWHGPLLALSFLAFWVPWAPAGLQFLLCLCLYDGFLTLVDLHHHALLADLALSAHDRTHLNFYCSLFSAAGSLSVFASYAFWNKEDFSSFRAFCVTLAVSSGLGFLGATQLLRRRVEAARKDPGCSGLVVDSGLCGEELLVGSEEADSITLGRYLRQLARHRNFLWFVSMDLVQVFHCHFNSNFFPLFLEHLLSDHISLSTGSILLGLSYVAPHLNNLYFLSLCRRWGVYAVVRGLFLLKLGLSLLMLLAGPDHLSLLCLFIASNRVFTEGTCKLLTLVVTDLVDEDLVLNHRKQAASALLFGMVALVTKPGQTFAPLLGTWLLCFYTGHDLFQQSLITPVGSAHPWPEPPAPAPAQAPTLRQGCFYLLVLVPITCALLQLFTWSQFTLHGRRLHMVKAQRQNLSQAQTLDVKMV

[2] = target: T1, human transmembrane protein 180 …; assay: flow cytometry, hybridoma supernatant on DLD-1 cells (selection of clones)
[3] = target: T1, human transmembrane protein 180 …; assay: flow cytometry, DLD-1 parent line against TMEM-180 knockout line; culture supernatant diluted two-fold
Method: The plate was centrifuged for 3 minutes at 440×g and 4° C. followed by removing the supernatant, adding antibody-producing hybridoma culture supernatant or antibody solution to the cell pellet at 50 μL/well and suspending therein. After allowing to react for 45 minutes on ice, the plate was washed three times with a mixture of 0.1% BSA, 2 mM EDTA and PBS at 200 μL/well. The supernatant was removed and secondary antibody was added to the cell pellet at 50 μL/well followed by suspending the cells therein. AlexaFluor 647 goat anti-rat IgG (H-L) (Life Technologies Corporation) was used for the secondary antibody after diluting 400-fold with a mixture of 0.1% BSA, 2 mM EDTA and PBS. After allowing to react for 45 minutes on ice, the plate was washed three times with a mixture of 0.1% BSA, 2 mM EDTA and PBS at 200 μL/well. […] The cells stained in this manner were measured using a flow cytometer such as the Guava easyCyte 8HT (Merck Millipore Corporation) followed by analysis of the resulting data using FlowJO (Tomy Digital Biology Co., Ltd.). […]
Flow cytometry was carried out in accordance with the procedure described in the above-mentioned section 3. […] Furthermore, antibody concentration in the hybridoma culture supernatant was measured by rat IgM-specific ELISA (Bethyl Laboratories).

- binding result [1]: binds
B1: anti-TMEM-180 antibody clone 212 (rat IgM) (antibody, V domains shown)
VH: EVQLVESGGGLVQPGNSLKLSCAASGFTFSDYAMAWVRQSPKKGLEWVATIIYDGSSTYYRDSVKGRFTISRDNAKSTLYLQMDSLRSEDTATYYCATHWYWYFDFWGPGTMVTVSS
VL: DIQMTQSPASLSASLGETVSIECLASEGISNDLAWYQQKSGKSPQLLIYAASRLQDGVPSRFSGSGSGTRYSLKISGMQPEDEADYFCQQSYKYPLTFGSGTKLEIK
notes: Rat IgM from hybridoma; the entries appear to include a leader and no cleavage site is stated

- binding result [2]: binds
B2: anti-TMEM-180 antibody clone 382 (rat IgG) (antibody, V domains shown)
VH: EVQLVESGGGLVQPGRSLKLSCAASGFTFSNYGMHWIRQAPTKGLEWVASISPSGGSTYYRDSVKGRFTISRDNAKSTLYLQMDSLRSEDTATYYCATSASITAYYYVMDAWGQGASVTVSS
VL: DIVMTQSPTSMSISVGDRVTMNCKASQNVGSNVDWYQQKTGQSPKLLIYKASNRYTGVPDRFTGSGSGTDFTFTISNMQAEDLAVYYCMQSNSYPPTFGGGTKLELR
notes: the entries appear to include a leader

- binding result [1]: binds
B3: anti-TMEM-180 antibody clone 101 (rat IgM) (antibody, V domains shown)
VH: QVQLKETGPGLVQPTQTLSITCTVSGFSLTSYYMQWVRQTPGKGLEWMGFIRSGGSTEYNSEFKSRLSISRDTSKNQVFLKMNSLKTEDTGVYYCARAFYGGYYFDYWGQGVMVTVSS
VL: DIVMTQSPTSISISVGERVTMNCKASQNVGSNVDWYQQKTGQSPKLLIYKASNRYTGVPDRFTGSGSGTDFTFTISNMQAEDLAVYYCMQSNTKYTFGAGTKLELK
notes: as for B1

- binding result [2]: binds
B4: rat IgM antibody clone 98 (anti-TMEM-180 antibody clone 98) (antibody, V domains shown)
VH: QVQLKESGPGLVQPSQTLSLTCTVSGFSLTRYNVHWVRQPTGKGLEWMGVIWTGGSTDYNSALKSRLSISRDTSKSQVFLKMNSLQTEDIATYYCARDLGYWGQGVMVTVSS
VL: DIVMTQTPLSLSVAIGQSASISCKSSQSLKYRDGKTYLNWVFQSPGQSPKRLIYQVSKLDSGVPDRFSGTGSETDFTLKISRVEAEDLGVYYCCQGSYSPHTFGAGTKLELK
notes: Rat IgM from hybridoma, used as culture supernatant; also called IgM 98; Anti-TMEM-180 IgM rat antibody (clone 98)

- binding result [3]: binds
B5: rat-human chimeric antibody clone 98 (antibody, V domains shown)
VH: B4 VH
VL: B4 VL
notes: Used as culture supernatant diluted two-fold; also called human chimeric IgG antibody

- binding result [2]: binds
B6: anti-TMEM-180 antibody clone 699 (rat IgM) (antibody, V domains shown)
VH: QVQLQQSGAELTKPGSSVKISCKASGYTFTSYDISWIKQRPGQALEWIGAINPGSGGTGYNEKFKGKATLTVDKSSSTAFMQLSSLTPEDTAVYYCARIHGGYRYWFAYWGQGTLVTVSS
VL: EIVLTQSPTTMAASPGEKVTITCRASSSVSYMHWFQQKSGTSPKPWIYDTSKLASGVPDRFSGSGSGTSYSLTISSMEAEDAATYYCLQRSSYPPTFGAGTKLELK
notes: as for B2

- binding result [2]: binds
B7: anti-TMEM-180 antibody clone 129 (rat IgG) (antibody, V domains shown)
VH: QIQLVQSGPELKKPGESVKISCKASGYTFTDCALNWVKQAPGNGLKWMGWINTQTGKPTYADDFKQRFVFSLETSASTAYLQINNLNIEDTATYFCTREDYGYFDYWGQGVMVTVSS
VL: DIQMTQSPPSLSASLGDKVTITCQASQNINKFIAWYQQKPGKAPRHLVHYTSTLVSGTPSRFSGSGSGRDYSFSISNVESEDIASYYCLQYDNLRTFGGGTKLELK
notes: as for B2

- binding result [2]: binds
B8: anti-TMEM-180 antibody clone 1052 (rat IgM) (antibody, V domains shown)
VH: QVQLKESGPGLMQPSETLSLTCTVSGFSLTSNGVGWVRQPLGKGLVWMGTIWTGGGTNYNSGVQSRLSISRDTSKSQVFLKMNSLQPEDTGTYYCAREYMGFDYWGQGVMVTVSS
VL: NTVMTQSPTSMFTSVGDRVTMSCKASQNVGINVGWYQQKTGQSPKRLIYWASNRDTGVPDRFTGSGSGTDFTLTISNMQAEDPAIYYCLQHNSYPRTFGGGTKLELK
notes: as for B2

- binding result [2]: binds
B9: anti-TMEM-180 antibody clone 1105 (rat IgM) (antibody, V domains shown)
VH: B8 VH with T53S, G62A, S70T, Y99E, M100K, D103A, V109T, M110L
VL: B8 VL with T2I, F12S, T97A, K107R
notes: as for B2
